How the values were obtained:
[1] = biological target: MBP-EcMinC-Aahelix3 (E. coli | A. aeolicus) (UniProt P18196); experiment: SEC-MALS; MALLS and SEC (Fig. S4)
[2] = biological target: the molecule itself; experiment: crystal structure; hanging-drop vapor diffusion at 20 °C, 0.1 M Tris-HCl pH 7.2, 0.44 M sodium/potassium tartrate; 3.0 Å; dimer in the asymmetric unit
[3] = biological target: the molecule itself; experiment: SEC-MALS; MALLS and SEC (Fig. S4)

MBP-EcMinC-Aahelix3 (from UniProt P18196 1-231; O67034 82-201)
stoichiometry N [1]: 2

B1: C-terminal domain of MinC from Escherichia coli (EcMinCCTD) (domain or fragment, E. coli)
chain: PVTKTRLIDTPVRSGQRIYAPQCDLIVTSHVSAGAELIADGNIHVYGMMRGRALAGASGDRETQIFCTNLMAELVSIAGEYWLSDQIPAEFYGKAARLQLVENALTVQPLN
notes: MinC, E. coli K12; C-terminal domain, a degradation fragment of ~13 kD of full-length MinC-6xHis; residues 122-231 are named for the superposition with TmMinCCTD; Crystals grew from full-length MinC-6xHis (pET22b-MinC) that was degraded over 3-6 weeks; source: E. coli BL21(DE3), full-length MinC-6xHis purified (Ni-agarose, SEC); degraded to the C-terminal domain during crystallization; not shown: …
binding result [2]: binds

B2: MBP-EcMinC (natural protein, E. coli, UniProt P18196 1-231, looked up)
chain: MSNTPIELKGSSFTLSVVHLHEAEPKVIHQALEDKIAQAPAFLKHAPVVLNVSALEDPVNWSAMHKAVSATGLRVIGVSGCKDAQLKAEIEKMGLPILTEGKEKAPRPAPTPQAPAQNTTPVTKTRLIDTPVRSGQRIYAPQCDLIVTSHVSAGAELIADGNIHVYGMMRGRALAGASGDRETQIFCTNLMAELVSIAGEYWLSDQIPAEFYGKAARLQLVENALTVQPLN
notes: called full-length EcMinC; Modified pET-28b with MBP in place of the N-terminal His-tag; source: E. coli BL21(DE3), purified (Ni-agarose, SEC); not shown: MBP, N-terminal, kept
stoichiometry N [3]: 2
